Measured values taken from patent publication US20210079080A1 (Hoffmann-La Roche, published 2021).

How the values were obtained:
[1] = target: T1, VEGF-121-His (inhouse production) (human, UniProt P15692 207-395); test: SPR (Biacore), hVEGF-A121 captured by anti-His antibody, Fab injected, 25° C
T1 construct: His-tagged human VEGF-A121 used in the ELISAs and (captured by an anti-His antibody) in SPR; also called hVEGF-A121; his VEGF; not shown: His tag
T1 sequence: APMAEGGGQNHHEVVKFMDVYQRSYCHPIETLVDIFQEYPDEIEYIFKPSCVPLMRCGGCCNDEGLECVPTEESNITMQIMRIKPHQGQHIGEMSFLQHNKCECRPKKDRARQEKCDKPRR
Protocol: (§1) The surface was regenerated by injecting 10 mM Glycine pH 1.5 for 60s. […] Rate constants were calculated using the Langmuir 1:1 binding model within the Biacore® Evaluation software.
(§2) The affinity of the antibodies was determined by SPR using the same methods as described in Example 2. All Fab fragments of antibodies of the invention as listed in table 1 and table 5 were tested.

[2] = target: T1, VEGF-121-His (inhouse production); test: SPR (Biacore), hVEGF-A121 captured by anti-His antibody, Fab injected, 37° C
Protocol: as §1, §2

[3] = target: T1, VEGF-121-His (inhouse production); test: inhibition ELISA: antibody titrated against 0.7 nM VEGF-121-His; blocked partner plate-bound biotinylated VEGF-R1; anti-His POD readout
[4] = target: T1, VEGF-121-His (inhouse production); test: direct ELISA on plate-coated VEGF-121-His
Protocol: After washing 3 times with 90 μl/well PBST-buffer (bidest water, 10×PBS Roche #11666789001+0.1% Tween® 20) blocking buffer (bidest water, 10×PBS Roche #11666789001+2% Bovine Serum Albumin Fraction V, fatty acid free, Roche, #10735078001+0.05% Tween® 20) was added 90 μl/well and incubated for 1 h at room temperature. […] After incubation for 1 h at room temperature, plates were again washed 3 times with 90 μl/well PBST-buffer. […] After washing 3 times with 90 μl A PBST-buffer, 25 μl TMB (Roche, #11 835 033 001) was added to each well. After 3 min incubation at RT, signals were detected at 370 nm/492 nm on a Tecan Safire 2 Reader.

[5] = target: T1, VEGF-121-His (inhouse production); test: SPR (Biacore), hVEGF-A121 captured by anti-His antibody, Fab injected, 25° C; remark: listed apart in the source
Protocol: as §1
(§3) The affinity of the antibodies was determined by SPR using the same methods as described in Example 2. All Fab fragments as listed in table 1 and table 2 were tested.

[6] = target: T1, VEGF-121-His (inhouse production); test: SPR (Biacore), hVEGF-A121 captured by anti-His antibody, Fab injected, 37° C; remark: listed apart in the source
Protocol: as §1, §3

[7] = target: T1, VEGF-121-His (inhouse production); test: Biacore, Fab stressed 2 w/37° C./pH 7.4
Protocol: (§4) Antibody samples were formulated in 20 mM His/HisCl, 140 mM NaCl, pH 6.0, and were split into three aliquots: one aliquot was re-buffered into PBS, respectively, and two aliquots were kept in the original formulation. The PBS aliquot and one His/HisCl aliquot were incubated for 2 weeks (2 w) at 40° C. (His/NaCl) or 37° C. (PBS) in 1 mg/ml, the PBS sample was incubated further for total 4 weeks (4 w). The third control aliquot sample was stored at −80° C.

[8] = target: T1, VEGF-121-His (inhouse production); test: inhibition ELISA: antibody titrated against 0.4 nM VEGF-121-His; blocked partner plate-bound biotinylated VEGF-R2; anti-His POD readout
[9] = target: T1, VEGF-121-His (inhouse production); test: inhibition ELISA: antibody titrated against 0.7 nM VEGF-121-His; blocked partner plate-bound biotinylated VEGF-R2; anti-His POD readout
Protocol: Plates were incubated for 1 h at room temperature. […] Plates were incubated for 1 h at room temperature. […] After washing 3 times with 90 μl/well PB ST-buffer, 25 μl/well detection antibody (anti His POD, Bethyl, #A190-114P, 1:12000) in 1×OSEP was added. After incubation for 1 h at room temperature plates were washed 3 times with 90 μl PBST-buffer. 25 μl TMB (Roche, #11 835 033 001) was added to all wells simultaneously. After 10 min incubation at room temperature, signals were detected at 370 nm/492 nm on a Tecan Safire 2 Reader.

[10] = target: T1, VEGF-121-His (inhouse production); test: Biacore, Fab stressed 4 w/37° C./pH 7.4
Protocol: as §4

[11] = target: T1, VEGF-121-His (inhouse production); test: Biacore, Fab stressed 2 w/40° C./pH 6.0
Protocol: as §4

[12] = target: T2, human VEGF-A121 (human, UniProt P15692 207-395); test: cell-based or functional assay
T2 sequence: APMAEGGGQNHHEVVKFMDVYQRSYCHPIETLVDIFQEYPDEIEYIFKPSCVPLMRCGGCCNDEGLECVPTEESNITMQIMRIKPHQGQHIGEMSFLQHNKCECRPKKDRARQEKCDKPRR

B1: HF2-1 Fab fragment (Fab, V domains shown)
VH: EVQLVESGGGLVQPGGSLRLSCAASNFVFRSHGMQWVRQAPGKGLEYVAGISSDGSWTGYGAAVEGRFTISRDDSKNTAYLQMNSLRAEDTAVYYCARDFSTGYGADSIDAWGQGTLVTVSS
VL: DIQMTQSPSSLSASVGDRVTITCSGGSDSAYGYGWYQQKPGKAPKTLIYWDDKRPSGVPSRFSGSRSGTDFTLTISSLQPEDFATYYCGAWEYSGGVGIFGQGTKVEIKR
notes: Prior art antibody disclosed in EP3006465
B1 showed a Kd [1] of 0.279 nM and a Kd [2] of 0.574 nM.

B2: HF2-11 Fab fragment (Fab, V domains shown)
VH: EVQLVESGGGLVQPGGSLRLSCAASGFLIRSHGMQWVRQAPGKGLEYVAGISSDGSWVKVAAAVEGRFTISRDDSKNTAYLQMNSLRAEDTAVYYCARDFSTGYGADSIDAWGQGTLVTVSS
VL: DIQMTQSPSSLSASVGDRVTITCSGGSSEPLGYGWYQQKPGKAPKTLIYWDDKRPSGVPSRFSGSRSGTDFTLTISSLQPEDFATYYCGAWEYSGGVGIFGQGTKVEIKR
notes: as for B1
B2 was tested, and the Kd [1] was 0.032 nM, the Kd [2] was 0.062 nM and the “IC50 (read off the curve)” value [3] was roughly 1 nM.

B3: HF2-9 Fab fragment (Fab, V domains shown)
VH: EVQLVESGGGLVQPGGSLRLSCAASMFRIRSHGMQWVRQAPGKGLEYVAGISSDGSWFRVAAAVEGRFTISRDDSKNTAYLQMNSLRAEDTAVYYCARDFSTGYGADSIDAWGQGTLVTVSS
VL: DIQMTQSPSSLSASVGDRVTITCSGGSMEPLGYGWYQQKPGKAPKTLIYWDDKRPSGVPSRFSGSRSGTDFTLTISSLQPEDFATYYCGAWEYSGGVGIFGQGTKVEIKR
notes: as for B1
In the case of B3, the Kd [1] is reported as 0.024 nM, the Kd [2] is reported as 0.051 nM and the “IC50 (read off the curve)” value [3] is reported as roughly 0.7 nM.

B4: r84 full length IgG1 antibody (antibody, V domains shown)
VH: QVQLVQSGAEVKKPGASVKVSCKASGGTFSSYAISWVRQAPGQGLEWMGGFDPEDGETIYAQKFQGRVTMTEDTSTDTAYMELSSLRSEDTAVYYCATGRSMVRGVIIPFNGMDVWGQGTTVTVSS
VL: not shown
notes: Full length IgG1; also called r84 IgG1
B4: binds [4].

B5: r84 Fab fragment (Fab, V domains shown)
VH: QVQLVQSGAEVKKPGASVKVSCKASGGTFSSYAISWVRQAPGQGLEWMGGFDPEDGETIYAQKFQGRVTMTEDTSTDTAYMELSSLRSEDTAVYYCATGRSMVRGVIIPFNGMDVWGQGTTVTVSS
VL: not shown
notes: Prior art antibody disclosed in WO 2009060198, made here as Fab
B5: binds [4].

B6: L3H6 Fab fragment (Fab, V domains shown)
VH: QVQLVQSGAEVKKPGESLKISCKGSGYSFTSYWIGWVRQMPGKGLEWMGIIYPGDSDTRYSPSFQGQVTISADKSISTAYLQWSSLKASDTAMYYCARQGTHNRKIWGQGTMVTVSS
VL: QAVVTQEPSLTVSPGGTVTLTCASSTGAVTSGNYPNWFQQRPGQPPRALIYSTSNKHSWTPARFSGSLLGGKAALTLSGAQPEDEAEYYCRLSYDLARPVFGGGTKLTVLG
notes: Prior art antibody disclosed in WO 2012089176, made here as Fab
In the case of B6, the Kd [5] is reported as 3.36 nM, the Kd [6] is reported as 4.52 nM and the “EC50 (read off the curve)” value [4] is reported as roughly 0.3 nM.

B7: VEGF-0113 Fab fragment (Fab, V domains shown)
VH: EVQLVESGGGLVQPGGSLRLSCAASGFTFTNYAMTWVRQAPGKGLEWVSSIGNGPGIYTYYADSVKGRFTISRDNSKNTLYLQMNSLRAEDTAVYYCAKGDNLFDSWGPGTLVTVSS
VL: DIQMTQSPASLSASVGDRVTITCRASQSIYSSLNWYQQKPGKAPKLLIYASTLQSGVPSRFSGSASGTDFTLTISSLQPEDVATYYCQQYQNFPRTFGQGTKLEIKR
notes: Variant of VEGF-0089 (G to P at position 6 of H-CDR2); Fab with rabbit derived CLkappa and CH1
With B7 the “VEGF-binding activity after stress (relative active concentration, normalized to unstressed aliquot)” value [7] was 103, the Kd [1] was 0.022 nM and the Kd [5] was 0.021 nM. The “IC50 (read off the curve)” value [8] was roughly 0.2 nM, the “IC50 (read off the curve)” value [9] was roughly 2 nM and the “VEGF-binding activity after stress (relative active concentration, normalized to unstressed aliquot)” value [10] was 101. For the same binder, the Kd [6] was 0.017 nM, the “EC50 (read off the curve)” value [4] was roughly 0.3 nM and the “VEGF-binding activity after stress (relative active concentration, normalized to unstressed aliquot)” value [11] was 103. For the same binder, the “IC50 in reporter gene assay (HEK293-NFAT-RE-Luc2P/KDR cells, luminescence, 25 ng/ml VEGF-A121)” value [12] was 0.63 nM and the Kd [2] was 0.029 nM.

B8: VEGF-P1AD8675 Fab fragment (Fab, V domains shown)
VH: EVQLVESGGGLVQPGGSLRLSCAASGFTFTNYAMTWVRQAPGKGLEWVSSIGNGGGIYTYYADSVKGRFTISRDNWKNTLYLQMNSLRAEDTAVYYCAKGDNLFDSWGPGTLVTVSS
VL: DIQMTQSPASLSASVGDRVTITCRASQSIYSSLNWYQQKPGKAPKLLIYASTLQSGVPSRFSGSASGTDFTLTISSLQPEDVATYYCQQYQNFPRTFGQGTKLEIKR
For B8, the “VEGF-binding activity after stress (relative active concentration, normalized to unstressed aliquot)” value [7] was 102, the Kd [1] was 0.088 nM and the “VEGF-binding activity after stress (relative active concentration, normalized to unstressed aliquot)” value [10] was 109. The “VEGF-binding activity after stress (relative active concentration, normalized to unstressed aliquot)” value [11] was 101 and the Kd [2] was 0.065 nM.

B9: VEGF-0114 Fab fragment (Fab, V domains shown)
VH: EVQLVESGGGLVQPGGSLRLSCAASGFTFTNYAMTWVRQAPGKGLEWVSSIGSGGFYTYYADSVKGRFTISRDNSKNTLYLQMNSLRAEDTAVYYCAKGDNLFDSWGPGTLVTVSS
VL: DIQMTQSPASLSASVGDRVTITCRASQSIYSSLNWYQQKPGKAPKLLIYASTLQSGVPSRFSGSASGTDFTLTISSLQPEDVATYYCQQYQNFPRTFGQGTKLEIKR
notes: Fab with rabbit derived CLkappa and CH1; also called VEGR-0114 Fab
With B9 the “VEGF-binding activity after stress (relative active concentration, normalized to unstressed aliquot)” value [7] was 102, the Kd [1] was 0.05 nM and the Kd [5] was 0.055 nM. For the same binder, the “IC50 (read off the curve)” value [8] was roughly 0.3 nM, the “VEGF-binding activity after stress (relative active concentration, normalized to unstressed aliquot)” value [10] was 99 and the Kd [6] was 0.056 nM. The “EC50 (read off the curve)” value [4] was roughly 0.3 nM, the “VEGF-binding activity after stress (relative active concentration, normalized to unstressed aliquot)” value [11] was 99 and the “IC50 in reporter gene assay (HEK293-NFAT-RE-Luc2P/KDR cells, luminescence, 25 ng/ml VEGF-A121)” value [12] was 1.34 nM. The Kd [2] was 0.054 nM.

B10: VEGF-P1AE3521 Fab fragment (Fab, V domains shown)
VH: EVQLVESGGGLVQPGGSLRLSCAASGFTFTNYAMTWVRQAPGKGLEWVSSIGSGGFYTYYADSVKGRFTISRDNWKNTLYLQMNSLRAEDTAVYYCAKGDNLFDSWGPGTLVTVSS
VL: DIQMTQSPASLSASVGDRVTITCRASQSIYSSLNWYQQKPGKAPKLLIYASTLQSGVPSRFSGSASGTDFTLTISSLQPEDVATYYCQQYQNFPRTFGQGTKLEIKR
With B10 the “VEGF-binding activity after stress (relative active concentration, normalized to unstressed aliquot)” value [7] was 103, the Kd [1] was 0.032 nM and the “VEGF-binding activity after stress (relative active concentration, normalized to unstressed aliquot)” value [10] was 99. The “VEGF-binding activity after stress (relative active concentration, normalized to unstressed aliquot)” value [11] was 101 and the Kd [2] was 0.061 nM.

B11: VEGF-P1AE3520 Fab fragment (Fab, V domains shown)
VH: EVQLVESGGGLVQPGGSLRLSCAASGFTFTNYAMTWVRQAPGKGLEWVSSIGNGPGIYTYYADSVKGRFTISRDNWKNTLYLQMNSLRAEDTAVYYCAKGDNLFDSWGPGTLVTVSS
VL: DIQMTQSPASLSASVGDRVTITCRASQSIYSSLNWYQQKPGKAPKLLIYASTLQSGVPSRFSGSASGTDFTLTISSLQPEDVATYYCQQYQNFPRTFGQGTKLEIKR
For B11, the “VEGF-binding activity after stress (relative active concentration, normalized to unstressed aliquot)” value [7] was 102, the Kd [1] was 0.031 nM and the “VEGF-binding activity after stress (relative active concentration, normalized to unstressed aliquot)” value [10] was 101. For the same binder, the “VEGF-binding activity after stress (relative active concentration, normalized to unstressed aliquot)” value [11] was 100 and the Kd [2] was 0.039 nM.
